Assay results from paper PMC10681739, “High-throughput data and modeling reveal insights into the mechanisms of cooperative DNA-binding by transcription factor proteins”.

T1: ETS1 x2 (Homo sapiens, UniProt P14921)
T1 sequence: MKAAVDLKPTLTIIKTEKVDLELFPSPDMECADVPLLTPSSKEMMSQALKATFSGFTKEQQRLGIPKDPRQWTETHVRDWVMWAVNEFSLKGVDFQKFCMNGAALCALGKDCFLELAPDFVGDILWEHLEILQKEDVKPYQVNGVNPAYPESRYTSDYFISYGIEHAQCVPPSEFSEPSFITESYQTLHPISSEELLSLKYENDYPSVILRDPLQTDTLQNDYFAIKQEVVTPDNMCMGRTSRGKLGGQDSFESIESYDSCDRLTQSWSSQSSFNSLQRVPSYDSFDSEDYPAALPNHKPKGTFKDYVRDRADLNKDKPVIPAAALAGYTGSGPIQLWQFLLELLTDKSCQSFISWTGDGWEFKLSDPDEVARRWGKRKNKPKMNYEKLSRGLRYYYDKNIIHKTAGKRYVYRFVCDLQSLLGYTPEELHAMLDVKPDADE


Target: T1, ETS1 x2
Test: gcPBM; 10 nM ETS1
Conditions: tags: N-terminal GST (pDEST15), kept (PMC6008103); chain copies: 2; label: surface-attached array probe

Row | Binder | binding signal
1 | Table S4 A row 1679 (dsDNA) DNA 1: AGTGTTCACTTCCTGCCCTCCCATTTCCTGAAGGTC DNA 2: GACCTTCAGGAAATGGGAGGGCAGGAAGTGAACACT | 35600 PBM fluorescence, median of replicate spots
2 | Table S4 A row 2202 (dsDNA) DNA 1: AGGGCGATTTCCGCTTTGTCGCGTTTCCTCAAGGCT DNA 2: AGCCTTGAGGAAACGCGACAAAGCGGAAATCGCCCT | 37800 PBM fluorescence, median of replicate spots
3 | Table S4 A row 2195 (dsDNA) DNA 1: TGAAGAAGCACCGGAAATGCTTCCGATCGCTTCATA DNA 2: TATGAAGCGATCGGAAGCATTTCCGGTGCTTCTTCA | 40400 PBM fluorescence, median of replicate spots
4 | Table S4 A row 2460 (dsDNA) DNA 1: GGCTGGAAGGCACTTCCGGCGGAAGTTAGAGCTGGG DNA 2: CCCAGCTCTAACTTCCGCCGGAAGTGCCTTCCAGCC | 42900 PBM fluorescence, median of replicate spots
5 | Table S4 A row 2168 (dsDNA) DNA 1: CCGGCCTTCCACTTCCGGCGCGGAAGTTGGCGTCAC DNA 2: GTGACGCCAACTTCCGCGCCGGAAGTGGAAGGCCGG | 44800 PBM fluorescence, median of replicate spots
6 | Table S4 A row 2224 (dsDNA) DNA 1: GCACTTCCGCCAGAAGCCGGGTGTGTCCTTCCGGGC DNA 2: GCCCGGAAGGACACACCCGGCTTCTGGCGGAAGTGC | 49200 PBM fluorescence, median of replicate spots
7 | Table S4 A row 305 (dsDNA) DNA 1: GCCGCTTCCTGTTCAGAGGACAGACAGCTTCCTGAC DNA 2: GTCAGGAAGCTGTCTGTCCTCTGAACAGGAAGCGGC | 61600 PBM fluorescence, median of replicate spots
8 | Table S4 A row 743 (dsDNA) DNA 1: CCCCACTTCCTGTTGACACAATAGGCAGGATATTAA DNA 2: TTAATATCCTGCCTATTGTGTCAACAGGAAGTGGGG | 67800 PBM fluorescence, median of replicate spots
